Measured values taken from patent US20240400621A1, “PEPTIDES FOR METABOLIC SYNDROME” (ALPARIS, S.A. de C.V., priority 2021, published 2024).

What was measured:
[1] = target: T1, hTLR2 (Homo sapiens, UniProt O60603); experiment: hTLR2 stimulation in HEK-Blue hTLR2 cells (NF-κβ/SEAP reporter, QUANTI-Blue); assay type: cell-based
T1 construct: expressed in transfected cells; host or cells: HEK-Blue hTLR2 cells
Procedure: The analysis of the biological activity of the protein of SEQ ID NO. 1 was performed via an in vitro Toll-like receptors (TLRs) recognition assay. The HEK-Blue hTLR2 cell line expressing the hTLR2 receptor was used, whose stimulation activates the NF-Kβ factor, which in turn induces the production of the reporter protein, secreted embryonic alkaline phosphatase (SEAP). The SEAP levels are quantified by a colorimetric method with the reagent QUANTI-Blue and correspond to hTLR2 stimulation levels. The HEK-Blue hTLR2 cell line was thawed and propagated to make a master cell bank. From this bank, a vial was thawed to check the correct growth of the cell line and the absence of mycoplasma contamination. The cells of the thawed vial were propagated to make a working cell bank and continue the subcultures to mount the activity assay of SEQ ID NO. 1. This consisted of a series of tests in which the cellular response was evaluated with different molecules to determine the most suitable conditions for the assay.
The determined EC50 for SEQ ID NO. 1 was 1147±211 ng/ml (35.1±6.4 nM).
The in vitro biological activity of SEQ ID NO:2, SEQ ID NO:3, SEQ ID NO:4, SEQ ID NO: 8, SEQ ID NO:9, SEQ ID NO: 10, SEQ ID NO:11, SEQ ID NO: 12, SEQ ID NO: 13, SEQ ID NO: 14, SEQ ID NO: 15, and SEQ ID NO:16 was tested via the stimulation of hTLR2 in the cultures of HEK-Blue hTLR2 cells in 96-well plates for 24 h. After collecting the supernatant, the plate was incubated with QUANTI-Blue at 37° C. for 1 h, and absorbance was measured at 620 nm.
To determine the EC50, the absorbance was plotted against the logarithm of protein concentration, and the data was adjusted to a dose-response sigmoidal ligand binding model with 4 parameters. The cell culture medium was used as a negative control, and PAM (synthetic triacylated lipopeptide (Pam3CSK4)) was used as a positive control.

[2] = Body weight of mice on high-fat diet (DAG) with intragastric peptide for 12 weeks; assay type: in vivo, mice (C57BL/6JN)
Procedure: For all the in vivo testing, male mice of the C57BL/6JN strain between 8 to 10 weeks of age were used, housed in groups of 3 to 5 mice per cage with food and water ad libitum in ventilated racks, and whose microbiota were unified for 4 weeks.
The mice received either 200 μL of a phosphate buffer solution (PBS) at pH 7.5 (as a vehicle), or 200 μL of the PBS solution, with each of the intragastric treatments daily for 12 weeks. They were fed either a Normal Diet (DN, Harlan, Teklad 2018SX) with 18% of the calories coming from fat, or a High-Fat Diet (DAG, Research Diets, D12491), with 60% of the calories coming from fat.
All the mice were randomly divided into five experimental groups in order to study the effect of SEQ ID NO: 3 and SEQ ID NO: 2 correctly: • Group 1—Mice with DN that received 200 μl of PBS intragastrically. • Group 2—Mice with DAG that received 200 μl of PBS intragastrically. • Group 3—Mice with DAG that received 200 μl of PBS with SEQ ID NO: 3 intragastrically at a dose of: 2.5 μg/mouse. • Group 4—Mice with DAG that received 200 μl of PBS with SEQ ID NO: 2 intragastrically at a dose of 0.6 μg/mouse (high dose). • Group 5—Mice with DAG that received 200 μl of PBS with SEQ ID NO: 2 intragastrically at a dose of 0.2 μg/mouse (low dose).
The animal weights and feed intakes were recorded weekly.
To determine the metabolic status of the animals before starting the experiment, weight, basal glucose levels, glucose tolerance, and insulin resistance were recorded.

T1 sequence (O60603 21-784): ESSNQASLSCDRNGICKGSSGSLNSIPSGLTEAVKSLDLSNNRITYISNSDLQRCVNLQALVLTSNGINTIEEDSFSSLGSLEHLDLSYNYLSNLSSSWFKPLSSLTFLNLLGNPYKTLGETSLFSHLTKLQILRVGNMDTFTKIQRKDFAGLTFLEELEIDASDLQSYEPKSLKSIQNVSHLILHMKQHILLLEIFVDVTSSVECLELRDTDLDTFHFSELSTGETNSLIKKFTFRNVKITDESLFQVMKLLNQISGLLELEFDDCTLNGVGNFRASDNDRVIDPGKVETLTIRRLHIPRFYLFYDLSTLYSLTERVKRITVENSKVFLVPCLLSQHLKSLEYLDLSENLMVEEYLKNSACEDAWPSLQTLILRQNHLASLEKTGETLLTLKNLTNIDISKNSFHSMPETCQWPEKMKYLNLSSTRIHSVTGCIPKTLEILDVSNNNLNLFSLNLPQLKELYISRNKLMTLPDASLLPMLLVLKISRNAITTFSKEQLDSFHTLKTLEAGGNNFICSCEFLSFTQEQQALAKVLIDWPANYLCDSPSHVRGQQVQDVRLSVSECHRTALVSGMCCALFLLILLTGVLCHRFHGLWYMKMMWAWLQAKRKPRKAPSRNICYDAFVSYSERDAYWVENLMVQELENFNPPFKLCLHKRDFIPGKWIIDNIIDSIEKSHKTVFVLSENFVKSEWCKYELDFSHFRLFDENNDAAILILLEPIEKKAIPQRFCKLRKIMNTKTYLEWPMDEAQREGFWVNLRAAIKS

B1: peptide SEQ ID NO: 3 (carboxyl terminal domain of SEQ ID NO: 1) (peptide)
chain: QLPIETPANNPEESDEADQAPWTPMPLEIAFQGDRESVLKAMNAITGMQDYLFTVNSIRIRNERMMPPPIANPAAAKPAAAQPATGAASLTPADEAAAPAAPAIQQVIKPYMGKEQVFVQVSLNLVHFNQPKAQEPSED
concentration from which hTLR2 is (significantly) stimulated ([1]; HEK-Blue hTLR2 cells, 24 h): 8 nM | relative response compared to PAM ([1]; from 229 nM, PAM (Pam3CSK4) positive control): 107% | Average weight ([2]; 0 weeks (initial state), DAG + SEQ ID NO: 3 group): 21.4 grams | Average weight ([2]; 12 weeks, DAG + SEQ ID NO: 3, 2.5 μg/mouse intragastric daily): 37.9 grams
